This is an account of results in patent US20080292632A1 (US Dept. of Health and Human Services, published 2008).

One assay addresses T1, CD30-Fc fusion protein (human, UniProt P28908 19-385).
T1 construct: extracellular domain; Negative control antigen; not shown: human IgG1 hinge and Fc of pRB-2k1-CD30
T1 sequence (looked up): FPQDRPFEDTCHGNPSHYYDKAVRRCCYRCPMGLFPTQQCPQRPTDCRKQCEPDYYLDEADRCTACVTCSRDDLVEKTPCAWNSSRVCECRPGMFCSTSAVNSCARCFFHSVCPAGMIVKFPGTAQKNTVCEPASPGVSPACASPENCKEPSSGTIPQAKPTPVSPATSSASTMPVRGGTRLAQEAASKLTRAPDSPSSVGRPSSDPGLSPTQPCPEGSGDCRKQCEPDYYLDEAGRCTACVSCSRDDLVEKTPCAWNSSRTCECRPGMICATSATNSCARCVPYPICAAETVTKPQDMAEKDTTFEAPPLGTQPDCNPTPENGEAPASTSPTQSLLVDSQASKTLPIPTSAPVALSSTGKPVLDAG
In words: ELISA. On the technique in general: In an ELISA, binding on a coated surface is turned into a signal by an enzyme label.

In assay [1] the target is T2, IRTA2 extracellular domain-Fc fusion protein (human, UniProt Q96RD9 16-851).
T2 construct: extracellular domain; also called IRTA2-Fc; IRTA2-HFc; not shown: human IgG1 hinge and Fc
T2 sequence (looked up): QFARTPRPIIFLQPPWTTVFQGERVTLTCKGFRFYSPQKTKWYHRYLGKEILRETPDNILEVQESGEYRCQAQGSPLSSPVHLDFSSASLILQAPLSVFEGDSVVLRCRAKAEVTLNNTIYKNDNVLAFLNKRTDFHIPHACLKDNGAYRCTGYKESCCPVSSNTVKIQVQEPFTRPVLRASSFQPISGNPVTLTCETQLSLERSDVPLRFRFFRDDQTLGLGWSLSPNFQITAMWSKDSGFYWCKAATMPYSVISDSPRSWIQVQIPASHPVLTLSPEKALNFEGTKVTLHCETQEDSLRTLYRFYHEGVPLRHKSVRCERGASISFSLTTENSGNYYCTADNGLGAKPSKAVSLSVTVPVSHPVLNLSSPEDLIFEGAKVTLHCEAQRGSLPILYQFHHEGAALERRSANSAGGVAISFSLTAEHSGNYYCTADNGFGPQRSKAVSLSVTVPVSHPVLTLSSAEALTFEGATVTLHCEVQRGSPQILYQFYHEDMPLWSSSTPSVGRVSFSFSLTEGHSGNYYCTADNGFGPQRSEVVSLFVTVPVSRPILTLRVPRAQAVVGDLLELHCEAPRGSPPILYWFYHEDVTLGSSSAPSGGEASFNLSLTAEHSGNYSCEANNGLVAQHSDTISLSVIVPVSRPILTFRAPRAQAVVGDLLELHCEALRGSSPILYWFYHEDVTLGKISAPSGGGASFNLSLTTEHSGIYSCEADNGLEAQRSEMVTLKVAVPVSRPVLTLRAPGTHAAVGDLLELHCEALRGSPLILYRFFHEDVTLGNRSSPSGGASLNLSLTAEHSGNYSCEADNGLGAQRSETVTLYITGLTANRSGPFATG
Briefly: equilibrium ELISA (Friguet). How it is done:
ELISA. In a typical indirect ELISA for the screening of hybridomas, microtiter plates (MaxiSorp; Nalge Nunc, Rochester, N.Y.) were coated with 100 ng/50 μl/well of goat anti-human IgG in phosphate buffered saline (PBS) for 2 hours at room temperature. Next, 50 ng/100 μl/well of IRTA2-Fc in blocking buffer (25% DMEM, 5% FBS, 25 mM HEPES, 0.5% bovine serum albumin, 0.1% sodium azide in PBS) was added to each well and incubated for 2 hours at room temperature. After washing with PBS containing 0.05% Tween 20, 50 μl of the hybridoma supernatants were added and incubated for 2 hours at room temperature. After washing, the bound MAbs were detected by a 2-hour incubation with horseradish peroxidase (HRP)-labeled goat anti-mouse IgG (Jackson ImmunoResearch, Grove, Pa.) followed by tetramethylbenzidine (TMB) substrate kit (Pierce, Rockford, Ill.). In some experiments, other IRTA-Fc fusion proteins were used instead of IRTA2-Fc.
Affinity Determination. Affinities (dissociation constant, Kd) of the anti-IRTA2 MAbs to IRTA2-Fc were determined by ELISA as previously described (Friguet et al., J Immunol Methods 77:305-19, 1985). Briefly, each MAb was incubated with various concentrations of IRTA2-Fc at room temperature for 20 hours to reach equilibrium; then the amount of MAb that remains unbound at equilibrium was measured by the indirect ELISA as described above.

B1: F25 (antibody, IgG2a, V domains shown)
VH: EVQLQQSGPELVKPGTSVKMSCKASGYSFTGYFMNWMMQNHGKSLEWIGRINLYNGDTFYNQKFKDKATLTVDKSSNTVHMEFRSLASEDSAVYYCASSLYYFDYWGQGTTFTVSS
VL: DIVMTQSHKFMSTSVGDRVNITCKASQDVGTNVAWYQQKPGQSPKLLIYWASTRQTGVPDRFTGSGSGTDFTLTISNVQSEDLSDYFCQQYSSYPLTFGAGTKLELKR
notes: mouse hybridoma MAb, IgG2a, kappa; also called MAb F25; biotin-MAb F25
The term Kd denotes a measure of binding affinity in units of concentration. Low readings indicate tighter binding, high ones weaker binding. In the case of B1, the binding result with CD30-Fc fusion protein is on record as “no binding”. In assay [1], this molecule displayed a Kd of 1.2 nM.
